According to publication PMC7062783, “Endophilin-A coordinates priming and fusion of neurosecretory vesicles via intersectin” (Nature Communications, 2020):

Target: T1, recombinant rat endophilin A1 FL (GST fusion) (rat, UniProt O35179 1-352)
T1 construct: endophilin A1 (endophilin 1), rat, full length, cloned into pGEX4T-1; also called endophilin 1
Experiment: pull-down; 50 or 100 ug GST-fusion protein coupled to GST-Bind resin, incubated with 10 ug His6-tagged recombinant protein in 1 ml for 1 h at 4 °C; extensive washes; Coomassie staining and/or SDS-PAGE and immunoblotting
Settings: both partners purified

T1 sequence (O35179 whole entry, the tested form may be a part): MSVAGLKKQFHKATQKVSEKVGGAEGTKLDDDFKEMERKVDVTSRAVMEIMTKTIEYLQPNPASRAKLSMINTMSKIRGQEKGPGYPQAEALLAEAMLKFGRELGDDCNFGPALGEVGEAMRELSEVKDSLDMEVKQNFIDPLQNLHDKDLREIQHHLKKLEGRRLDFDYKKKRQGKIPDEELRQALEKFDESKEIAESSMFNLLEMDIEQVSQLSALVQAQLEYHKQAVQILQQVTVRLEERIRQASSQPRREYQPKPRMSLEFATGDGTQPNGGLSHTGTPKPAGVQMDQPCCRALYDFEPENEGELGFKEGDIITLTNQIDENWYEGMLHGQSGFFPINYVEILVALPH

- binding result: binds
B1: recombinant human intersectin-1 SH3B (aa 914-970), His6-tagged (domain or fragment, UniProt Q15811 914-970, looked up)
chain: EGLQAQALYPWRAKKDNHLNFNKNDVITVLEQQDMWWFGEVQGQKGWFPKSYVKLIS
notes: intersectin-1, human, SH3B domain, aa 914-970, cloned in pET28a; also called ITSN-1; ITSN1
